Patent EP1379283B1, “IDENTIFICATION OF TARGET-SPECIFIC FOLDING SITES IN PEPTIDES AND PROTEINS” (Palatin Technologies, Inc., priority 2000, dated 2002)
Square brackets hold non-standard residues; d marks the D form. Ends that are not written are not given here. dChg = N[C@@H](C(=O)O)C1CCCCC1; Chg = N[C@H](C(=O)O)C1CCCCC1; Orn = NCCC[C@H](N)C(=O)O; Dap = NC[C@H](N)C(=O)O

What was measured:
oxytocin receptor = biological target: T1, oxytocin receptor (Rattus norvegicus, UniProt P70536); test: oxytocin receptor binding, 3H-oxytocin, cell membranes from rat uterus; details: for activity at oxytocin receptor: conclusion from Table 30; for % Inhibition at 1 µM Oxytocin Receptor: rat uterus membranes, 3H-oxytocin
T1 construct: cell membranes prepared from rat uterus; from tissue; host or cells: rat uterus membranes
T1 sequence (P70536 1-388): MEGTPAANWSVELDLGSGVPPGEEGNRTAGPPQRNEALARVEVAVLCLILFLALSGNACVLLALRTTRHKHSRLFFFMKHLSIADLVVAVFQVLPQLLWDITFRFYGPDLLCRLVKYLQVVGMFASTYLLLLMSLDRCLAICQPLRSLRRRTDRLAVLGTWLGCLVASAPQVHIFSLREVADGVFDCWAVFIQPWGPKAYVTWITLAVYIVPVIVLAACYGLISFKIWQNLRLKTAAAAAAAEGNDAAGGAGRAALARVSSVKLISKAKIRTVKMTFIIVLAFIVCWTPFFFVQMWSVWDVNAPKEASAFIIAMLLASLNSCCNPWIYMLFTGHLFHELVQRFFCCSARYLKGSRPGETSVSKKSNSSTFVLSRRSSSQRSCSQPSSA
Experimental: The screening of metallopeptides for binding to oxytocin receptor was done using cell membranes prepared from rat uterus. […] The membrane preparations (10 - 50 µg/well) were incubated with 412-800 pM ^3H-oxytocin in HEPES Buffer containing 0.2% bovine serum albumin along with a test compound (1 µM final assay concentration) for 2 hours at 4° C. Non-specific binding was determined by addition of 10^-6 M oxytocin instead of the test compound. After incubation, the membranes were filtered and washed three times with ice-cold PBS. The membranes were air-dried and punched directly into scintillation vials. After addition of the scintillation cocktail, the vials were capped and gently shaken for 12 hours to dissolve the radioactivity contained in the filters. The vials were then read for tritium counts in a scintillation counter. Specific binding was determined as the radioactivity in wells containing ^3H-oxytocin alone minus the radioactivity in wells containing 10^-6 M oxytocin. The assay was performed in triplicates. The activity profile for the test compounds were generated by their ability to inhibit specific binding of the radiotracer to its receptor.

vasopressin-1 receptor = biological target: T2, vasopressin-1 receptor (Rattus norvegicus, UniProt P30560); test: vasopressin-1 receptor binding, 3H-vasopressin-1 antagonist, cell membranes from rat liver
T2 construct: cell membranes prepared from rat liver; from tissue; host or cells: rat liver membranes
T2 sequence (P30560 whole entry): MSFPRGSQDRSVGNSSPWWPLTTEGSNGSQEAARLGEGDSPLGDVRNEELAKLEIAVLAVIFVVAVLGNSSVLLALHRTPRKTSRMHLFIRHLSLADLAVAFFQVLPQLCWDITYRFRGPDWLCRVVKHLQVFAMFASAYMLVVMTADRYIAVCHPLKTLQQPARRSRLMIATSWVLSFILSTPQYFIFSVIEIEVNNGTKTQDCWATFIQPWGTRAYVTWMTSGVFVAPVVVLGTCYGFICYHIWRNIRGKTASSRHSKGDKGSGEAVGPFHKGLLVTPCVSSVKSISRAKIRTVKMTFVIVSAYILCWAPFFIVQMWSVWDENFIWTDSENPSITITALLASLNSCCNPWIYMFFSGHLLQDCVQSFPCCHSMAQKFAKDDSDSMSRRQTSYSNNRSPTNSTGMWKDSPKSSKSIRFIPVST
Experimental: The screening of compounds for vasopressin-1 receptor was performed using cell membranes prepared from rat liver. The assay was essentially performed as described above for the oxytocin receptor assay. In this assay 2-4 nM ^3H-vasopressin-1 antagonist (obtained from Perkin Elemer- NEN Life Sciences) was used as the radiotracer and Arg^8-vasopressin (1 µM final concentration in the assay) was used to determine non-specific binding. The assay was performed in triplicates. Activity profile for the test compounds were generated by their ability to inhibit specific binding of the radiotracer to its receptor.

uPA receptor = biological target: T3, uPA receptor (Homo sapiens, UniProt Q03405); test: uPA receptor-binding assay using U937 cells and ATF as competitive ligand; details: 1 µM metallopeptide; U937 cells; ATF as competitive receptor binding ligand
T3 construct: endogenous in cells; host or cells: U937 cells
T3 sequence (Q03405 23-335): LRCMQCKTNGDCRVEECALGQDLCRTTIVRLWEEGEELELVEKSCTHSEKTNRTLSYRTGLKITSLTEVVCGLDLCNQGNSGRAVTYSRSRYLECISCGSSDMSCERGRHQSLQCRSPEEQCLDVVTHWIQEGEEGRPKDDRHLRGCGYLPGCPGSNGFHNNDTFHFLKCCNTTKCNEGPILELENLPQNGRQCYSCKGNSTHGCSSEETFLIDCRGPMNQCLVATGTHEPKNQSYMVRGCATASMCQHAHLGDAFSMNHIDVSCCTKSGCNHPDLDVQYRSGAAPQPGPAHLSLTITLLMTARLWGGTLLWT

[1] = Table 30, oxytocin ligand library
[2] = Table 29, vasopressin ligand library

## Ala-Tyr-Ile-Gln-Asn-Cys-Ala-Pro-Leu-Gly-NH2 (AYIQNCAPLG-NH2; not fully specified (bridges); printed as Ala-Tyr-Ile-Gln-Asn-Cys-Ala-Pro-Leu-Gly-NH2; also: oxorhenium(V) N3S1 metal chelate (X-X-Cys)) [SEQ ID NO:155]
Oxytocin receptor
  activity at oxytocin receptor: maximal activity
vasopressin-1 receptor; [1]
  % Inhibition at 1 µM Vasopressin-1 Receptor: 0%

## [Chg][dW]CIT[Dap]AP[Orn]-NH2
Oxytocin receptor; [2]
  % Inhibition at 1 µM Oxytocin Receptor: 0%
vasopressin-1 receptor; [2]
  % Inhibition at 1 µM Vasopressin-1 Receptor: 0%

## Ala-Tyr-Ile-Gln-Asn-Ala-Pro-Leu-Gly-Cys-NH2 (AYIQNAPLGC-NH2; not fully specified (bridges); printed as Ala-Tyr-Ile-Gln-Asn-Ala-Pro-Leu-Gly-Cys-NH2; also: oxorhenium(V) N3S1 metal chelate (X-X-Cys)) [SEQ ID NO:149]
Oxytocin receptor; [1]
  % Inhibition at 1 µM Oxytocin Receptor: 6%
vasopressin-1 receptor; [1]
  % Inhibition at 1 µM Vasopressin-1 Receptor: 0%

## Ala-Tyr-Ile-Gln-Asn-Ala-Cys-Ala-Leu-Gly-NH2 (AYIQNACALG-NH2; not fully specified (bridges); printed as Ala-Tyr-Ile-Gln-Asn-Ala-Cys-Ala-Leu-Gly-NH2; also: oxorhenium(V) N3S1 metal chelate (X-X-Cys)) [SEQ ID NO:154]
Oxytocin receptor; [1]
  % Inhibition at 1 µM Oxytocin Receptor: 31%
Oxytocin receptor
  activity at oxytocin receptor: active
vasopressin-1 receptor; [1]
  % Inhibition at 1 µM Vasopressin-1 Receptor: 0%

## Ac-Val-Ser-Asn-Cys-Lys-Tyr-Phe-Ser-Asn-Ile-His-Trp-NH2 (Ac-VSNCKYFSNIHW-NH2; not fully specified (bridges); printed as Ac-Val-Ser-Asn-Cys-Lys-Tyr-Phe-Ser-Asn-Ile-His-Trp-NH2; also: oxorhenium(V) N3S1 metal chelate (X-X-Cys)) [SEQ ID NO:5]
uPA receptor
  % Inhibition at 1 µM: 0.0%

## Ala-Tyr-Cys-Ile-Gln-Asn-Ala-Pro-Leu-Gly-NH2 (AYCIQNAPLG-NH2; not fully specified (bridges); printed as Ala-Tyr-Cys-Ile-Gln-Asn-Ala-Pro-Leu-Gly-NH2; also: oxorhenium(V) N3S1 metal chelate (X-X-Cys)) [SEQ ID NO:158]
Oxytocin receptor; [1]
  % Inhibition at 1 µM Oxytocin Receptor: 6%
vasopressin-1 receptor; [1]
  % Inhibition at 1 µM Vasopressin-1 Receptor: 1%

## Ala-Tyr-Ile-Cys-Gln-Asn-Ala-Pro-Leu-Gly-NH2 (AYICQNAPLG-NH2; not fully specified (bridges); printed as Ala-Tyr-Ile-Cys-Gln-Asn-Ala-Pro-Leu-Gly-NH2; also: oxorhenium(V) N3S1 metal chelate (X-X-Cys)) [SEQ ID NO:157]
Oxytocin receptor; [1]
  % Inhibition at 1 µM Oxytocin Receptor: 0%
vasopressin-1 receptor; [1]
  % Inhibition at 1 µM Vasopressin-1 Receptor: 0%

## Caca-D-Trp-Ile-Thr-Cys-Dap-Ala-Pro-Orn-NH2
Oxytocin receptor; [2]
  % Inhibition at 1 µM Oxytocin Receptor: 0%
vasopressin-1 receptor; [2]
  % Inhibition at 1 µM Vasopressin-1 Receptor: 0%

## Caca-D-Trp-Ile-Thr-Dap-Cys-Ala-Pro-Orn-NH2
Oxytocin receptor; [2]
  % Inhibition at 1 µM Oxytocin Receptor: 9%
vasopressin-1 receptor; [2]
  % Inhibition at 1 µM Vasopressin-1 Receptor: 22%

## Ac-Val-Ser-Asn-Lys-Tyr-Phe-Ser-Cys-Asn-Ile-His-Trp-NH2 (Ac-VSNKYFSCNIHW-NH2; not fully specified (bridges); printed as Ac-Val-Ser-Asn-Lys-Tyr-Phe-Ser-Cys-Asn-Ile-His-Trp-NH2; also: oxorhenium(V) N3S1 metal chelate (X-X-Cys)) [SEQ ID NO:9]
uPA receptor
  % Inhibition at 1 µM: 35.0%

## Caca-D-Trp-Ile-Thr-Dap-Ala-Cys-Pro-Orn-NH2
Oxytocin receptor; [2]
  % Inhibition at 1 µM Oxytocin Receptor: 0%
vasopressin-1 receptor; [2]
  % Inhibition at 1 µM Vasopressin-1 Receptor: 0%

## Ala-Tyr-Ile-Gln-Asn-Ala-Ala-Leu-Gly-Cys-NH2 (AYIQNAALGC-NH2; not fully specified (bridges); printed as Ala-Tyr-Ile-Gln-Asn-Ala-Ala-Leu-Gly-Cys-NH2; also: oxorhenium(V) N3S1 metal chelate (X-X-Cys)) [SEQ ID NO:150]
Oxytocin receptor; [1]
  % Inhibition at 1 µM Oxytocin Receptor: 0%
vasopressin-1 receptor; [1]
  % Inhibition at 1 µM Vasopressin-1 Receptor: 0%

## Ac-Val-Ser-Asn-Lys-Tyr-Phe-Ser-Asn-lie-His-Trp-Cys-NH2 [SEQ ID NO:12]
uPA receptor
  % Inhibition at 1 µM: 0.0%

## Caca-D-Trp-Ile-Cys-Thr-Dap-Ala-Pro-Orn-NH2
Oxytocin receptor; [2]
  % Inhibition at 1 µM Oxytocin Receptor: 0%
vasopressin-1 receptor; [2]
  % Inhibition at 1 µM Vasopressin-1 Receptor: 52%

## Ac-Val-Ser-Cys-Asn-Lys-Tyr-Phe-Ser-Asn-Ile-His-Trp-NH2 (Ac-VSCNKYFSNIHW-NH2; not fully specified (bridges); printed as Ac-Val-Ser-Cys-Asn-Lys-Tyr-Phe-Ser-Asn-Ile-His-Trp-NH2; also: oxorhenium(V) N3S1 metal chelate (X-X-Cys)) [SEQ ID NO:4]
uPA receptor
  % Inhibition at 1 µM: 0.0%

## Ac-Val-Ser-Asn-Lys-Tyr-Phe-Ser-Asn-Cys-Ile-His-Trp-NH2 (Ac-VSNKYFSNCIHW-NH2; not fully specified (bridges); printed as Ac-Val-Ser-Asn-Lys-Tyr-Phe-Ser-Asn-Cys-Ile-His-Trp-NH2; also: oxorhenium(V) N3S1 metal chelate (X-X-Cys)) [SEQ ID NO:10]
uPA receptor
  % Inhibition at 1 µM: 32.0%

## Ala-Tyr-Ile-Gln-Asn-Ala-Ala-Cys-Leu-Gly-NH2 (AYIQNAACLG-NH2; not fully specified (bridges); printed as Ala-Tyr-Ile-Gln-Asn-Ala-Ala-Cys-Leu-Gly-NH2; also: oxorhenium(V) N3S1 metal chelate (X-X-Cys)) [SEQ ID NO:152]
Oxytocin receptor; [1]
  % Inhibition at 1 µM Oxytocin Receptor: 0%
vasopressin-1 receptor; [1]
  % Inhibition at 1 µM Vasopressin-1 Receptor: 1%

## Caca-D-Trp-Ile-Thr-Dap-Ala-Cys-Ala-Orn-NH2
Oxytocin receptor; [2]
  % Inhibition at 1 µM Oxytocin Receptor: 0%
vasopressin-1 receptor; [2]
  % Inhibition at 1 µM Vasopressin-1 Receptor: 0%

## Ac-Val-Ser-Asn-Lys-Tyr-Cys-Phe-Ser-Asn-Ile-His-Trp-NH2 (Ac-VSNKYCFSNIHW-NH2; not fully specified (bridges); printed as Ac-Val-Ser-Asn-Lys-Tyr-Cys-Phe-Ser-Asn-Ile-His-Trp-NH2; also: oxorhenium(V) N3S1 metal chelate (X-X-Cys)) [SEQ ID NO:7]
uPA receptor
  % Inhibition at 1 µM: 18.0%

## Caca-D-Trp-Ile-Thr-Dap-Ala-Ala-Cys-Orn-NH2
Oxytocin receptor; [2]
  % Inhibition at 1 µM Oxytocin Receptor: 0%
vasopressin-1 receptor; [2]
  % Inhibition at 1 µM Vasopressin-1 Receptor: 0%

## Ala-Tyr-Ile-Gln-Asn-Ala-Cys-Pro-Leu-Gly-NH2 (AYIQNACPLG-NH2; not fully specified (bridges); printed as Ala-Tyr-Ile-Gln-Asn-Ala-Cys-Pro-Leu-Gly-NH2; also: oxorhenium(V) N3S1 metal chelate (X-X-Cys)) [SEQ ID NO:153]
Oxytocin receptor; [1]
  % Inhibition at 1 µM Oxytocin Receptor: 2%
vasopressin-1 receptor; [1]
  % Inhibition at 1 µM Vasopressin-1 Receptor: 0%

## Caca-D-Trp-Ile-Thr-Dap-Ala-Ala-Orn-Cys-NH2
Oxytocin receptor; [2]
  % Inhibition at 1 µM Oxytocin Receptor: 0%
vasopressin-1 receptor; [2]
  % Inhibition at 1 µM Vasopressin-1 Receptor: 23%

## Ac-Val-Ser-Asn-Lys-Cys-Tyr-Phe-Ser-Asn-Ile-His-Trp-NH2 (Ac-VSNKCYFSNIHW-NH2; not fully specified (bridges); printed as Ac-Val-Ser-Asn-Lys-Cys-Tyr-Phe-Ser-Asn-Ile-His-Trp-NH2; also: oxorhenium(V) N3S1 metal chelate (X-X-Cys)) [SEQ ID NO:6]
uPA receptor
  % Inhibition at 1 µM: 13.0%

## [dChg][dW]CIT[Dap]AP[Orn]-NH2
Oxytocin receptor; [2]
  % Inhibition at 1 µM Oxytocin Receptor: 0%
vasopressin-1 receptor; [2]
  % Inhibition at 1 µM Vasopressin-1 Receptor: 8%

## Ala-Tyr-Ile-Gln-Asn-Ala-Ala-Leu-Cys-Gly-NH2 (AYIQNAALCG-NH2; not fully specified (bridges); printed as Ala-Tyr-Ile-Gln-Asn-Ala-Ala-Leu-Cys-Gly-NH2; also: oxorhenium(V) N3S1 metal chelate (X-X-Cys)) [SEQ ID NO:151]
Oxytocin receptor; [1]
  % Inhibition at 1 µM Oxytocin Receptor: 0%
vasopressin-1 receptor; [1]
  % Inhibition at 1 µM Vasopressin-1 Receptor: 0%

## Pmp-D-Trp-Cys-Ile-Thr-Dap-Ala-Pro-Orn-NH2
Oxytocin receptor; [2]
  % Inhibition at 1 µM Oxytocin Receptor: 0%
vasopressin-1 receptor; [2]
  % Inhibition at 1 µM Vasopressin-1 Receptor: 23%

## Ala-Tyr-Ile-Gln-Cys-Asn-Ala-Pro-Leu-Gly-NH2 (AYIQCNAPLG-NH2; not fully specified (bridges); printed as Ala-Tyr-Ile-Gln-Cys-Asn-Ala-Pro-Leu-Gly-NH2; also: oxorhenium(V) N3S1 metal chelate (X-X-Cys)) [SEQ ID NO:156]
Oxytocin receptor; [1]
  % Inhibition at 1 µM Oxytocin Receptor: 18%
Oxytocin receptor
  activity at oxytocin receptor: active
vasopressin-1 receptor; [1]
  % Inhibition at 1 µM Vasopressin-1 Receptor: 0%
